Laboratory results taken from paper PMC7804408.
pKd: −log10 of the molar value.

Biological target: trigger factor (TF) (E. coli) (UniProt P0A850)
Assay: SPR; TF immobilised on a CM5 chip by amine coupling, analytes injected at 20 μL/min for 90 s; Biacore X, 22 °C; 10 mM HEPES pH 7.5, 150 mM NaCl, 3 mM EDTA, 0.005% P20; steady-state response against concentration, one-site Langmuir model; apparent Kd for ClpX

Chain of trigger factor (TF) (E. coli) (P0A850 whole entry): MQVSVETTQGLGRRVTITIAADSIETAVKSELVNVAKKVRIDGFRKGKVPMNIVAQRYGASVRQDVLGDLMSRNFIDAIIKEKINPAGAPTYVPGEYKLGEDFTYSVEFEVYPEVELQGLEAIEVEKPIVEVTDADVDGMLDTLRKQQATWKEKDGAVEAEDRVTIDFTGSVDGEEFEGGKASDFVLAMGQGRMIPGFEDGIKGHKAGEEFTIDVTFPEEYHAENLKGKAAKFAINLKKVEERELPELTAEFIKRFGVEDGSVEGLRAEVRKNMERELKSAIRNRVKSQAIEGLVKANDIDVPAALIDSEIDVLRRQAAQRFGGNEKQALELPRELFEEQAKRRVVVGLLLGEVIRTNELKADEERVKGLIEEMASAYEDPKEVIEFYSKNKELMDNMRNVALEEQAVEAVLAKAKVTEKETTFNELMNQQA

pKd: 5.70
Substance: ClpX∆ZBD (AAA+ domain of ClpX) (domain or fragment)
